Where a chain is given by its changes, count along the chain named.
Assays:
[1] = molecular target: T1, recombinant hTfR, extracellular region of human transferrin receptor with a histidine tag added at the … (human, UniProt P02786 89-760); assay: BLI (OctetRED96), His-tagged TfR ECD on Ni-NTA sensor, peptide in solution
T1 construct: also called hTfR-ECD(Histag); human TfR; not shown: N-terminal histidine tag
Target sequence in this assay (P02786 89-760): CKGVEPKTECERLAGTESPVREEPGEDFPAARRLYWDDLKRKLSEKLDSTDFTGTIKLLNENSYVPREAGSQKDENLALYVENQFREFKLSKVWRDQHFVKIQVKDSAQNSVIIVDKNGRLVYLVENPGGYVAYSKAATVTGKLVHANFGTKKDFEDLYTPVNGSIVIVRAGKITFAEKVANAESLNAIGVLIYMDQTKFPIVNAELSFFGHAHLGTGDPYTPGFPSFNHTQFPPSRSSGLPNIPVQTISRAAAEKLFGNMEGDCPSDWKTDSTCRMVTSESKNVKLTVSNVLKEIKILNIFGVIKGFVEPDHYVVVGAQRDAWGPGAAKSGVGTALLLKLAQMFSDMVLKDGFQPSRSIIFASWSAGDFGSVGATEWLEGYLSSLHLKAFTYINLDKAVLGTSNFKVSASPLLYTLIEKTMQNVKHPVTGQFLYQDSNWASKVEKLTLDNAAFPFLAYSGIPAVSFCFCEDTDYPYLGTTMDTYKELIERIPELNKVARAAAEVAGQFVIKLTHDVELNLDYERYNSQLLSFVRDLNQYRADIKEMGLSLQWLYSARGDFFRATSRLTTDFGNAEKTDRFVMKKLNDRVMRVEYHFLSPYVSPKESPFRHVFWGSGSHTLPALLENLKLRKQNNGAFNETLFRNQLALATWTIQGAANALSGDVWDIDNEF

[2] = molecular target: T2, recombinant monkey TfR, extracellular region of cynomolgus monkey transferrin receptor with a histidine tag … (cynomolgus monkey (Macaca fascicularis), UniProt Q5RDH6 89-760 (Pongo abelii entry)); assay: ratio calculated from the measured KD values
T2 construct: also called monkey TfR-ECD(Histag); cynomolgus monkey TfR; not shown: N-terminal histidine tag
T2 chain: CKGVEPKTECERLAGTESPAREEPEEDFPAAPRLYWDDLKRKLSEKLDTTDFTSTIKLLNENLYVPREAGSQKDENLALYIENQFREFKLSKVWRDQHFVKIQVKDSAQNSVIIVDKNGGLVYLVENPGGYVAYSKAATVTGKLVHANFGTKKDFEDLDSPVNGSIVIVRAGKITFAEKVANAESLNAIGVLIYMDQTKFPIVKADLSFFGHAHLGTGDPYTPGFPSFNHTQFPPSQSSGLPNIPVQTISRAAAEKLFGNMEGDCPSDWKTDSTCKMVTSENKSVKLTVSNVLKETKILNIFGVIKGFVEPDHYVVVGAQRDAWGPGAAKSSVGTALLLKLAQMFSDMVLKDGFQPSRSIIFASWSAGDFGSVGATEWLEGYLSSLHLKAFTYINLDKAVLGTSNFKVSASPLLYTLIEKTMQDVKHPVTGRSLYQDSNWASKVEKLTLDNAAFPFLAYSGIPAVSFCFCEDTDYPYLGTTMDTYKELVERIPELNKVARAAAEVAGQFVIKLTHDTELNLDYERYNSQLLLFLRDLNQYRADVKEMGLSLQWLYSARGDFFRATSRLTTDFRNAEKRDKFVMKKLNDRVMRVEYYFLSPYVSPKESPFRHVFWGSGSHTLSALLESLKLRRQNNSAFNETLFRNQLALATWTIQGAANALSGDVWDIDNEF

[3] = molecular target: T3, recombinant hTfR containing the extracellular region of hTfR (coated on the ELISA plate in Example 16) (human, UniProt P02786 89-760); assay: ELISA, recombinant hTfR coated on plate, detection with anti-hIDS monoclonal antibody
T3 construct: That contradicts 'extracellular region' (residue 89 to the C-terminus elsewhere); also called human transferrin receptor

[4] = molecular target: T2, recombinant monkey TfR, extracellular …; assay: BLI (OctetRED96), His-tagged TfR ECD on Ni-NTA sensor, peptide in solution
[5] = molecular target: T1, recombinant hTfR, extracellular region …; assay: BLI (OctetRED96), method of Example 7, His-tagged TfR ECD on Ni-NTA sensor
[6] = molecular target: T2, recombinant monkey TfR, extracellular …; assay: as above

B1: hTfR affinity peptide 1 (VHH)
VHH: QVQLVESGGGLVHPGGSLRLSCVASGTSFSLNVVTWYRQALGKQREWVATINQSEAPTYADSVKGRFTISRDGAKNTVYLQMNSLVTEDTALYYCYDRYNEIRGQGTQVTVSS
notes: Expressed in CHO-S cells, purified on Anti-FLAG M1 agarose; also called clone 1; VHH(1)
Binder B1 has a Kd [1] of 97 nM, a koff [1] of 0.0271 s⁻¹ and a kon [1] of 280000 M⁻¹ s⁻¹. The “relative value of KD with monkey TfR (KD with hTfR taken as 1)” value (from here on “relative value of KD with monkey TfR”) [2] was 1.06.

B2: hTfR affinity peptide 2 (VHH)
VHH: B1 VHH with R19S, V23A, L31F, V33T, Q53G, E55G, Q81L
notes: The tag is stated only for peptide 1; Peptides 2 to 5 were obtained 'in the same manner'; also called clone 2; VHH(2)
Work on B2 yielded a Kd [1] of 61.4 nM, a koff [1] of 0.0146 s⁻¹ and a kon [1] of 237000 M⁻¹ s⁻¹. For the same binder, the “relative value of KD with monkey TfR” value [2] was 2.36.

B3: VHH5-GS3-hIDS (other)
chain: QVQLVESGGGLVQPGGSLRLSCAASGSIFDIYVMRWYRQAPGKGLEWVASIYDGGRNDYDNVVKGRFTISRDNSKNTLYLQMNSLRAEDTAVYFCNVLTYAGRPYWGQGTQVTVSSGGGGSGGGGSGGGGSSETQANSTTDALNVLLIIVDDLRPSLGCYGDKLVRSPNIDQLASHSLLFQNAFAQQAVCAPSRVSFLTGRRPDTTRLYDFNSYWRVHAGNFSTIPQYFKENGYVTMSVGKVFHPGISSNHTDDSPYSWSFPPYHPSSEKYENTKTCRGPDGELHANLLCPVDVLDVPEGTLPDKQSTEQAIQLLEKMKTSASPFFLAVGYHKPHIPFRYPKEFQKLYPLENITLAPDPEVPDGLPPVAYNPWMDIRQREDVQALNISVPYGPIPVDFQRKIRQSYFASVSYLDTQVGRLLSALDDLQLANSTIIAFTSDHGWALGEHGEWAKYSNFDVATHVPLIFYVPGRTASLPEAGEKLFPYLDPFDSASQLMEPGRQSMDLVELVSLFPTLAGLAGLQVPPRCPVPSFHVELCREGKNLLKHFRFRDLEEDPYLPGNPRELIAYSQYPRPSDIPQWNSDKPSLKDIKIMGYSIRTIDYRYTVWVGFNPDEFLANFSDIHAGELYFVDSDPLQDHNMYNDSQGGDLFQLLMP
notes: VHH-enzyme fusion; also called VHH5-GS3-hI2S
In the case of B3, the EC50 [3] is reported as 1.09 nM.

B4: VHH6-GS3-hIDS (other)
chain: B3 chain with D53A
notes: VHH-enzyme fusion; also called VHH6-GS3-hI2S
With B4 the EC50 [3] was 22.7 nM.

B5: VHH5-Tandem-GS3-hIDS (other)
chain: QVQLVESGGGLVQPGGSLRLSCAASGSIFDIYVMRWYRQAPGKGLEWVASIYDGGRNDYDNVVKGRFTISRDNSKNTLYLQMNSLRAEDTAVYFCNVLTYAGRPYWGQGTQVTVSSGSQVQLVESGGGLVQPGGSLRLSCAASGSIFDIYVMRWYRQAPGKGLEWVASIYDGGRNDYDNVVKGRFTISRDNSKNTLYLQMNSLRAEDTAVYFCNVLTYAGRPYWGQGTQVTVSSGGGGSGGGGSGGGGSSETQANSTTDALNVLLIIVDDLRPSLGCYGDKLVRSPNIDQLASHSLLFQNAFAQQAVCAPSRVSFLTGRRPDTTRLYDFNSYWRVHAGNFSTIPQYFKENGYVTMSVGKVFHPGISSNHTDDSPYSWSFPPYHPSSEKYENTKTCRGPDGELHANLLCPVDVLDVPEGTLPDKQSTEQAIQLLEKMKTSASPFFLAVGYHKPHIPFRYPKEFQKLYPLENITLAPDPEVPDGLPPVAYNPWMDIRQREDVQALNISVPYGPIPVDFQRKIRQSYFASVSYLDTQVGRLLSALDDLQLANSTIIAFTSDHGWALGEHGEWAKYSNFDVATHVPLIFYVPGRTASLPEAGEKLFPYLDPFDSASQLMEPGRQSMDLVELVSLFPTLAGLAGLQVPPRCPVPSFHVELCREGKNLLKHFRFRDLEEDPYLPGNPRELIAYSQYPRPSDIPQWNSDKPSLKDIKIMGYSIRTIDYRYTVWVGFNPDEFLANFSDIHAGELYFVDSDPLQDHNMYNDSQGGDLFQLLMP
notes: Two copies of peptide 5 in tandem, fused to hIDS; also called VHH5-Tandem-GS3-hI2S
In the case of B5, the EC50 [3] is reported as 0.077 nM.

B6: hTfR affinity peptide 5 (VHH)
VHH: QVQLVESGGGLVQPGGSLRLSCAASGSIFDIYVMRWYRQAPGKGLEWVASIYDGGRNDYDNVVKGRFTISRDNSKNTLYLQMNSLRAEDTAVYFCNVLTYAGRPYWGQGTQVTVSS
notes: Same CDRs as peptide 3; The tag is stated only for peptide 1; Peptides 2 to 5 were obtained 'in the same manner'; also called clone 5; VHH(5)
Binder B6 has a Kd [1] of 13.8 nM, a koff [1] of 0.00562 s⁻¹ and a kon [1] of 407000 M⁻¹ s⁻¹. For the same binder, the Kd [4] was 17.5 nM, the koff [4] was 0.00695 s⁻¹ and the kon [4] was 396000 M⁻¹ s⁻¹. The “relative value of KD with monkey TfR” value [2] was 1.27.

B7: hTfR affinity peptide 3 (VHH)
VHH: B6 VHH with G16E, K43N, G44Q, L45R, S74A, L78V, Y79H, R86K, A87P
notes: The tag is stated only for peptide 1; Peptides 2 to 5 were obtained 'in the same manner'; also called clone 3; VHH(3)
In the case of B7, the Kd [1] is reported as 10.5 nM, the koff [1] is reported as 0.006 s⁻¹ and the kon [1] is reported as 571000 M⁻¹ s⁻¹. It also gave a Kd [4] of 10.7 nM, a koff [4] of 0.0123 s⁻¹ and a kon [4] of 1.15e+06 M⁻¹ s⁻¹. The “relative value of KD with monkey TfR” value [2] was 1.02.

B8: hTfR affinity peptide 6 (VHH)
VHH: B6 VHH with D53A
notes: One amino acid of CDR2 of peptide 5 is substituted; also called VHH6
Binder B8 has a Kd [1] of 137 nM, a koff [1] of 0.0586 s⁻¹ and a kon [1] of 428000 M⁻¹ s⁻¹.

B9: VHH3-GS3-hSGSH (other)
chain: DYKDDDDKQVQLVESGGGLVQPGESLRLSCAASGSIFDIYVMRWYRQAPGNQREWVASIYDGGRNDYDNVVKGRFTISRDNAKNTVHLQMNSLKPEDTAVYFCNVLTYAGRPYWGQGTQVTVSSGGGGSGGGGSGGGGSRPRNALLLLADDGGFESGAYNNSAIATPHLDALARRSLLFRNAFTSVSSCSPSRASLLTGLPQHQNGMYGLHQDVHHFNSFDKVRSLPLLLSQAGVRTGIIGKKHVGPETVYPFDFAYTEENGSVLQVGRNITRIKLLVRKFLQTQDDRPFFLYVAFHDPHRCGHSQPQYGTFCEKFGNGESGMGRIPDWTPQAYDPLDVLVPYFVPNTPAARADLAAQYTTVGRMDQGVGLVLQELRDAGVLNDTLVIFTSDNGIPFPSGRTNLYWPGTAEPLLVSSPEHPKRWGQVSEAYVSLLDLTPTILDWFSIPYPSYAIFGSKTIHLTGRSLLPALEAEPLWATVFGSQSHHEVTMSYPMRSVQHRHFRLVHNLNFKMPFPIDQDFYVSPTFQDLLNRTTAGQPTGWYKDLRHYYYRARWELYDRSRDPHETQNLATDPRFAQLLEMLRDQLAKWQWETHDPWVCAPDGVLEEKLSPQCQPLHNEL
notes: VHH-enzyme fusion; Purified on anti-FLAG M1 gel; also called VHH-GS3-hSGSH
Work on B9 yielded a Kd [5] of less than 0.001 nM, a koff [5] of less than 1e-07 s⁻¹ and a kon [5] of 423000 M⁻¹ s⁻¹. For the same binder, the Kd [6] was 0.00116 nM, the koff [6] was 4.81e-07 s⁻¹ and the kon [6] was 417000 M⁻¹ s⁻¹.

B10: hTfR affinity peptide 4 (VHH)
VHH: QVQLVESGGGLVQAGASLRLSCAASGRTDGIDRMAWFHQAPGEGREFVAGINKRGGGVDYAPGVKGRFTLSLDSDKNTLYLQMNNLRLEDTGVYSCAVGSGRIIVKSDTWGQGTQVTVSS
notes: The tag is stated only for peptide 1; Peptides 2 to 5 were obtained 'in the same manner'; also called clone 4; VHH(4)
Binder B10 has a Kd [1] of 11.9 nM, a koff [1] of 0.0027 s⁻¹ and a kon [1] of 227000 M⁻¹ s⁻¹. For the same binder, the Kd [4] was 9.92 nM, the koff [4] was 0.00316 s⁻¹ and the kon [4] was 318000 M⁻¹ s⁻¹. The “relative value of KD with monkey TfR” value [2] was 0.83.

From patent publication EP4424325A1 (JCR Pharmaceuticals Co., Ltd., dated 2024)
